Bounds are passed on as bounds.

This data set addresses T1, CasEnd-5 (synthetic construct).
T1 chain: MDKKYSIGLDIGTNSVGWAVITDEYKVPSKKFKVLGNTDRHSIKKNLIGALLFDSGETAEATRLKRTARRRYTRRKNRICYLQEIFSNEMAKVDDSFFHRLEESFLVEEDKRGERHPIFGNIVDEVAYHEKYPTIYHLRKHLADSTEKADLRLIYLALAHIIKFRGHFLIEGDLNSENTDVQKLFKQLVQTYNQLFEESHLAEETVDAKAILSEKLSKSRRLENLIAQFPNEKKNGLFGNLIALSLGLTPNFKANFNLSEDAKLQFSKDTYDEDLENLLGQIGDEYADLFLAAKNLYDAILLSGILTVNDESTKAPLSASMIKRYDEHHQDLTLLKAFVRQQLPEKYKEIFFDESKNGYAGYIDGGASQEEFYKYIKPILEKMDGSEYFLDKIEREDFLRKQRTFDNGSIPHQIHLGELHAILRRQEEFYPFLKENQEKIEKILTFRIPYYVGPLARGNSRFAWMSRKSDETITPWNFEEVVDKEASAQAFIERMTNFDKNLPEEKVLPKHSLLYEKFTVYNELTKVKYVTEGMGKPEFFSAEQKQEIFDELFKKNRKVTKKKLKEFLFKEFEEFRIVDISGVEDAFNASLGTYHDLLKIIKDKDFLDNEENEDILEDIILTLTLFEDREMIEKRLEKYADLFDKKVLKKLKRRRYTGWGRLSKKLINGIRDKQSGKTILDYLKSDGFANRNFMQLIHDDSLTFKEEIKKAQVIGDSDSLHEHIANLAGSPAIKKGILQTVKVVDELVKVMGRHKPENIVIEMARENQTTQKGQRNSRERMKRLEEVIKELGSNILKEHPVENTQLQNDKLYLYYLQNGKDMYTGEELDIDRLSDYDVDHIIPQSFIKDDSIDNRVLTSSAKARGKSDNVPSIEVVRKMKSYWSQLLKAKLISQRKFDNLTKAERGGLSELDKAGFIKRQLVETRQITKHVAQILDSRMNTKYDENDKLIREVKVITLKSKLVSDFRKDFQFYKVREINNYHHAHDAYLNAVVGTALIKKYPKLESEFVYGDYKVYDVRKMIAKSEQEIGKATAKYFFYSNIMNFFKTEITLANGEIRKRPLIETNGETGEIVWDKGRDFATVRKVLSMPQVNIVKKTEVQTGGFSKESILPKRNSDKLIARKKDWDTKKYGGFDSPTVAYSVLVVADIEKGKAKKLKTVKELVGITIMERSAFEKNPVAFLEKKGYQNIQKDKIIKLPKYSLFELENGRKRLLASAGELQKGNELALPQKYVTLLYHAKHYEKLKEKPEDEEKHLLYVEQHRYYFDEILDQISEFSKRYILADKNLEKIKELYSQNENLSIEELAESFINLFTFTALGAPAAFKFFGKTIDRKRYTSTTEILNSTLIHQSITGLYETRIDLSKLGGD
Put plainly: cell_activity; +++; HEK293T; PAM not stated. The essentials: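 Editing activity was scored as the fraction of GFP+ cells on day 4 by flow cytometry. BFP-expressing HEK293T cells (250,000) received by nucleofection 200 ng plasmid for the RT-Cas fusion protein and 200 ng template RNA plasmid designed to convert BFP to GFP.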

B1: BFP-to-GFP template RNA ; BFP reporter protospacer (ssRNA ; dsDNA)
RNA: GCCGAAGCACUGCACGCCGUGUUUUAGAGCUAGAAAUAGCAAGUUAAAAUAAGGCUAGUCCGUUAUCAACUUGAAAAAGUGGCACCGAGUCGGUGCACCCUGACGUACGGCGUGCAGUGCUU
DNA 1: GCCGAAGCACTGCACGCCGT
DNA 2: ACGGCGTGCAGTGCTTCGGC
B1: the activity was ≥ 100 % of reference.
